Measured values reported in a protein production outcome set (Wang et al. 2014).

Experiment: label from the status in PepcDB records

Sequence | protein production
MLKKEYLKNPYLVLFAMIVLAYVFSVFCRFYWVWWASEFNEYFFNNQLMIISNDGYAFAEGARDMIAGFHQPNDLSYYGSSLSTLTYWLYKITPFSFESIILYMSTFLSSLVVIPIILLANEYKRPLMGFVAALLASVANSYYNRTMSGYYDTDMLVIVLPMFILFFMVRMILKKDFFSLIALPLFIGIYLWWYPSSYTLNVALIGLFLIYTLIFHRKEKIFYIAVILSSLTLSNIAWFYQSAIIVILFALFALEQKRLNFMIIGILGSATLIFLILSGGVDPILYQLKFYIFRSDESANLTQGFMYFNVNQTIQEVENVDFSEFMRRISGSEIVFLFSLFGFVWLLRKHKSMIMALPILVLGFLALKGGLRFTIYSVPVMALGFGFLLSEFKAILVKKYSQLTSNVCIVFATILTLAPVFIHIYNYKAPTVFSQNEASLLNQLKNIANREDYVVTWWDYGYPVRYYSDVKTLVDGGKHLGKDNFFPSFSLSKDEQAAANMARLSVEYTEKSFYAPQNDILKSDILQAMMKDYNQSNVDLFLASLSKPDFKIDTPKTRDIYLYMPARMSLIFSTVASFSFINLDTGVLDKPFTFSTAYPLDVKNGEIYLSNGVVLSDDFRSFKIGDNVVSVNSIVEINSIKQGEYKITPIDDKAQFYIFYLKDSAIPYAQFILMDKTMFNSAYVQMFFLGNYDKNLFDLVINSRDAKVFKLKI | failed
MDKYRLLLLGGGRGLFDIDEDFMHWIDEFIEEHSNSIEITIVTGKNKKLYDNLTHKKPLKNIKVLGFVNDMYNLIRECDLMLTKPGGATIFEAIQSQTPVLVKMPKVGQEIENAKFIIDKGLGMIYSDDLDLKNIFYKLVSNEFDSIINFMKKNLKEFKTVIHPEKIADYISELIDNHLEHHHHHH | failed
MITSLPDNYSPQRQIPIKPDITFVHVRLAHFIAMGAGIGLIRYMPGTAGTIAAFPFYRFLDSIIEPVSLLLIIDVFFIMGIWACAVTGRALNSPDHSGMVWDEIVAFMLVLFFTPDHWTWQLAAFFLFRFFDIVKPAPIGYLDARLKGGLGVMLDDLLAAFYTLLCLAGWKSMVLFESYF | failed
MQMMSELFASGTVVDAVLIFLLVEAIGVIGYWLWRKHGIAPADFLPGMISGALMLLALRAVLAGAGWMVPTLCLLAAGGAHLVDVLRRWR | failed
MDTVDLRHLDENLHHARTQFEVWARGRLSNLEEVQRTWQETTARVSRETETLVQRRTQFEAAAARLQERLEAEREELDALERGIAQLEARAAALPVRQQELEQEIAERRQEFERRRALLNACEEARRTRLLHLQKALVWYRDRLGLRFQRVGAASATEAGRVDGKVRVIFRHIDSRAPDREFAFTVYVDEDADLFRVEDCVPDIDVMKPTAGAANVRLAQMVETLNRTNDFGAFVAQMRRRFKAWVQMESTDQLAGRQA | failed
MRVLFIGDVFGQPGRRVLQNHLPTIRPQFDFVIVNMENSAGGFGMHRDAARGALEAGAGCLTLGNHAWHHKDIYPMLSEDTYPIVRPLNYADPGTPGVGWRTFDVNGEKLTVVNLLGRVFMEAVDNPFRTMDALLERDDLGTVFVDFHAEATSEKEAMGWHLAGRVAAVIGTHTHVPTADTRILKGGTAYQTDAGFTGPHDSIIGSAIEGPLQRFLTERPHRYGVAEGRAELNGVALHFEGGKATAAERYRFIED | not failed
TETSPDKWLIDGDTPLDEVERAIGYELPEGDYETISGLLFDHANALLKTGDVIEIPLDFEPEDYLNNTSPTQRILRITVLEVERNVPVKLALALLEDHPDNHPAPKENR | not failed
MSPFDTPRRLVAEALGTALLLAVVVGSGIMGERLSDGNIAIALLGNTLATGAALVVLIWVFGPISGAHFNPAVTLVAALRRELPLTLALAYPLAQILGGIAGVWTAHAMFGEPILQVSTKLRSGGDQAFAEVVATFGLLATILGVSRFRPESTPMAVGLYITAAYWFTASTSFANPAVTVARSLSDSFAGIAPASAPAFILAQLVGALSAAALFGWLLKTDTSR | failed
MKEKDKWIKNFRTRMEGYSEPAPADLWEQLEKELDTVPKVIPMWRRWQAVAAVALLVVVSSLTVWFWQSPSANYLEKQSAELNVMHEPDELVPGSITPEQPMALVVPAARSGKKQHVKVGGVAKAEALAAEQEVLLNKEVEEIQIEENYIEEQKEESVIVEQKQQKQAGRSSYSAAKTNYAYVAPHRKKDRNWSVGLSTGNGTFSSSTSMDGYLPLPNGTRNATMNSAYGVETRAEIDKLVQFNNLSEGKDAQSDIKYRMPVTFGASLRFDLSDDWAVETGVTYTQLSSETRSGTEKNNYGWEEKLHYVGIPLKVNRNIWSNKRFEVYASAGGAVEKCVSGKRSIIGSVSTSNAGKDEQFSGGEENVKVKPLQWSLSAAAGAQFKITEKLGIYAEPGVVYYFDDGSNVNTIRKEHPFNFNIQLGVRFTLPK | failed
MISVVIPLFNKAPHIVRAVESVLEQSSPADEIIVVDDGSTDGGGELLLPYVAKHGVRLIRQENAGVSVARNHGVNLAASDYVAFLDADDFWLPNHIATLRRLIDNYPEASLFSTALIIERDGRQWRSKSTYSDGWEGVVQDFFTEYLRRFALVSSTTSCVRKKDFCSIGGFPVGVKYGEDFICWMKMALFYRVAHAEVVTAVYCLDAVNRTDQLQETDVLAPLQFIAKLLQSNELDNAQRVGLAQLFDHISFSTGARFRINSNLNGVNAIRNLSWEMGHYRVSLLMSALRFTPSLLLQAAKRFRYRQVSVV | failed
MTDQLQHIRKPPRTGKAARSGTQDEIVYAHIFDAILEQRLAPGTKLSEEALGEIFGVSRTIIRRALSRLAHEQVVLLRPNRGAVVASPSIDEARQILFARRTVERAITELATDNATAERLAEL | failed
MLEKLLSAIKQKVSNYFLGVLPKSYSMSEENNILGLYDEHFLLTKNENLVGILRLEGVSYTHLSTEQLQDLFTERQMALDSLEKVVARLVVKRRKIDHQQNIQSDSQYLQAILNQFENKEVYENQYFLVLESTHSLHGVLEHKKKSLMHANRENFKDILSYKAHFLQETLKSLEIQLKNYAPKLLSSKEVLNFYAEYINGFDLPLKPLVGGYLSDSYIASSITFEKDYFIQESFNQKTYNRLIGIKAYESERITSIAIGALLYQETPLDIIFSIEPMSVHKTLSFLKERAKFSMSNLVKNELLEYQELVKTKRLSMQKFALNILIKAPSLENLDAQTSLVLGLLFKENLVGVIETFGLKGGYFSFFPERIHLNHRLRFLTSKALACLMVFERQNLGFKANSWGNSPLSVFKNLDYSPFLFNFHNQEVSHKNAKEIARVNGHTLIIGATGSGKSTLISFLMMSALKYQNMRLLAFDRMQGLYSFTKFFKGHYHDGQSFSINPFCLEPNLQNLEFLQSFFLSMFDLAPSRDKEALEDMNAISSAIKSLYETLYPKAFSLLDFKETLKRTSSNQLGLSLEPYLNNPLFNALNDAFNSNAFLNVINLDTITQNPKDLGLLAYYLFYKILEESRKNDSGFLVFLDEFKSYVENDLLNTKINALITQARKANGVVVLALQDIYQLSGVKNAHSFLSNMGTLILYPQKNARELKHNFNVPLSETEISFLENTPLYARQVLVKNLGNGSSNMIDVSLESLGRYLKIFNSDSSHVSKVKALQKDYPTEWREKLLRSLEHHHHHH | failed
MRGLSRRVQAMKPSATVAVNAKALELRRQGVDLVALTAGEPDFDTPEHVKEAARRALAQGKTKYAPPAGIPELREALAEKFRRENGLSVTPEETIVTVGGKQALFNLFQAILDPGDEVIVLSPYWVSYPEMVRFAGGVVVEVETLPEEGFVPDPERVRRAITPRTKALVVNSPNNPTGAVYPKEVLEALARLAVEHDFYLVSDEIYEHLLYEGEHFSPGRVAPEHTLTVNGAAKAFAMTGWRIGYACGPKEVIKAMASVSSQSTTSPDTIAQWATLEALTNQEASRAFVEMAREAYRRRRDLLLEGLTALGLKAVRPSGAFYVLMDTSPIAPDEVRAAERLLEAGVAVVPGTDFAAFGHVRLSYATSEENLRKALERFARVLGRA | not failed
PIEGEKVDLRIMSTTDLHTNLVNYDYYQDKESQKIGLAKTAVLIEEAKKENPNTVLVDNGDVIQGTPLGTYKAIVKPVAENEEHPMYQAMNALGYDASTLGNHEFNYGLDYLKKIIATANLPILNANVLDFKTHQPVFKTYDIITKTFKDSTGRAVALNIGITGIVPPQILNWDKANLEGKVIVKDSVKAIEEIVPTMRAKGADVILVLSHSGIGDDRYEEGEENVGYQIASIKGVDAVVTGHSHAEFPSGNGTGFYEKYTGVDGINGKINGTPVTMAGKYGDHLGIIDLGLSYTNGKWQVSESSAKIRKIDMNSTTADERIIALAKEAHDGTINYVRQ | not failed
MDWFSWLSRTNLEASLIYEYGLSFSNNELEYEDIAYFNHEFLQSMGISIAKHRLEILKLARRDRKPSPLTARSIFRVLIAIKKTGKCFSEHVRAWIRREESSRALVVVSRSTSSSGNGRWKSARKKRLVMPSNGNGVKEERLLLTNGTPCRLDSFSNPKVSSGYEDDDNHWGNKDVEEKIKWDSMFQNLKPT | failed
MKAIIMAGGQGKRLRPLTCNLPKPMMPIMQKPVLQYIIELLKKHGINEIGITLHYLPDEVMDYFGDGKELGVNIHYFIEQSPLGTAGSVRNAESFLDETFVVISGDALTDVNLTNILQYHKEKNAMVTIVLKKVTIPLEYGVAITDTEGRISNFIEKPGWGEIFSDKANTGIYVMEPGIFEFYNKDKKFDFSEELFPELLKSGKEIFGYVVNDYWRDIGNIEQFMKCNFDILNGYVDVDVDIDASQHQKGVWIGKNTIVSDNVKVIPPVYIGDNSEIRYGAEIGPFAVIGRNNIISEMATIKRSIIFENCYIGSGAELRGSVVSNNVQVGGGVSTFEESAIGTGSLVGEKSVVKAGVKIWPDKVIGSKTIIKTNVVWGENRCKVLFGKEGISGEINVELTPEFVSKLASAFASNLRMNSKVVVCSDYNLAAEMLKYSFVSGLISMGIEVYSAKEMTIPMLRFSTAYFKADAAVYIYCKGSNKEKVNILFIDKDGIMISRSMEKKIANSFLREDFRRTRANNFKRLRDFGECMGYYEDYIKENLCIQEIRNSGLKVAVSMENKLIKNEVKSIFSDLKIQYSIYDNYADLEGLKKEVIEKKMDFGVCISENCDKAIIIDENANIISTQMYESIKALILISVYKFKTIVAPVNSSKALKYIAKRYNCKYVKSKISERYILNEYILNEKDKNIKEVLFSYLSSTDALNIVINIINILARGKIKLSELMERIPNYILREKEIACSWDNKGKIMRSLIEENISKSIELIEGIKVNYEDAWVLIIPDSDEPICKIYAESNDEEKTDKIINEFESEIELFMKN | failed
MKSFVATVLVALLFIVALVFGARNEQVVTISYFVAQGEYRLPVVLAVVFFTGFMLSWLVASYYIVRLKLALAATRKKLTLQTAKKPQGVDA | failed
MEGSSSTIARKTWELENSILTVDSPDSTSDNIFYYDDTSQTRFQQEKPWENDPHYFKRVKISALALLKMVVHARSGGTIEIMGLMQGKTDGDTIIVMDAFALPVEGTETRVNAQDDAYEYMVEYSQTNKLAGRLENVVGWYHSHPGYGCWLSGIDVSTQRLNQQHQEPFLAVVIDPTRTVSAGKVEIGAFRTYSKGYKPPDEPVSEYQTIPLNKIEDFGVHCKQYYSLDVTYFKSSLDSHLLDLLWNKYWVNTLSSSPLLGNGDYVAGQISDLAEKLEQAESHLVQSRFGGVVPSSLHKKKEDESQLTKITRDSAKITVEQVHGLMSQVIKDELFNSMRQSNNKSPTDSSDPDPMITY | failed
MKAAPARSAAYDNPYAKRLFLIIDSLPQMQRALAMTLSSFGANTVEYASKASDALAKMAKYEFDVVLCDYDLGNGYDGLYLFEEIRERNLLKQSCVFMIVTGERRAQRVISAAELAPDDYLLKPFTGEVLRDRLERAMRKREAFRLVDENILRHDYLSAIETCGRKIEENGEFALDFMRLKGSLALKINDFDTARDAYMQVLRLRPATWAKMGLAKSLAGLKSHDEARLLFEAVLADNNQVMEAYDWLARLYRGNHDLGRAQHTLQTAADMSPVVFRRQQQLAQVAVLNHDLAAAEAACQQTLDIAKYTWHRSPTHYAALLRVQLARGDNGNAVRTLANLKHDYRYNEEGEWLAGVMDSQLQAKNGNADKARELLEAAGERFKQLAPKLDQESQLEYARACYQQGRDGQGNAVMEYLVRNHHDDEDMLEHFGDMFEEIGLSQAGRQLIAQNVKSVLELNNQAVREAQSGQFDAAIERFVKALDEMPQNVQIMLNLINAVLAYVSQNGWHESHMRRAYELLGKVRDTAPTNNKFQKILQSWRLLVDKMDKPQWAL | failed
